In article PMC2936784 (Science (New York, N.Y.), 2009) one finds Ki data, which are given here for 1 molecule.

The term Ki denotes the equilibrium dissociation constant of an inhibitor or competing ligand from its target. Low readings indicate tighter binding, high ones weaker binding.

For this assay, the target named is PTEN, purified from HEK293 cells (UniProt P60484 1-403). Description: enzyme inhibition kinetics.
PTEN, purified from HEK293 cells, sequence (P60484 whole entry): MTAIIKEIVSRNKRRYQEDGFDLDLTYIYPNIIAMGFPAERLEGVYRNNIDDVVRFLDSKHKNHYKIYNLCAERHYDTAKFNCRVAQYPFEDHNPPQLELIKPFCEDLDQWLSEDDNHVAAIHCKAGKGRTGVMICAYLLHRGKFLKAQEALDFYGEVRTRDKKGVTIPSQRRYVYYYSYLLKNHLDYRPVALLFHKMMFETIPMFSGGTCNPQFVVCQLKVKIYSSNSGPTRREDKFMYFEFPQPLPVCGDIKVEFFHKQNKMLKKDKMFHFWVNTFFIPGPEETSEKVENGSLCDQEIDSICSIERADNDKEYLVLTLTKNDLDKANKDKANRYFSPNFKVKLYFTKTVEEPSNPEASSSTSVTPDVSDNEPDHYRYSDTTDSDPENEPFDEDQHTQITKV

B1: Affinity purified full-length P-REX2a (natural protein, UniProt Q70Z35 1-1606, looked up)
chain: MSEDSRGDSRAESAKDLEKQLRLRVCVLSELQKTERDYVGTLEFLVSAFLHRMNQCAASKVDKNVTEETVKMLFSNIEDILAVHKEFLKVVEECLHPEPNAQQEVGTCFLHFKDKFRIYDEYCSNHEKAQKLLLELNKIRTIRTFLLNCMLLGGRKNTDVPLEGYLVTPIQRICKYPLILKELLKRTPRKHSDYAAVMEALQAMKAVCSNINEAKRQMEKLEVLEEWQSHIEGWEGSNITDTCTEMLMCGVLLKISSGNIQERVFFLFDNLLVYCKRKHRRLKNSKASTDGHRYLFRGRINTEVMEVENVDDGTADFHSSGHIVVNGWKIHNTAKNKWFVCMAKTPEEKHEWFEAILKERERRKGLKLGMEQDTWVMISEQGEKLYKMMCRQGNLIKDRKRKLTTFPKCFLGSEFVSWLLEIGEIHRPEEGVHLGQALLENGIIHHVTDKHQFKPEQMLYRFRYDDGTFYPRNEMQDVISKGVRLYCRLHSLFTPVIRDKDYHLRTYKSVVMANKLIDWLIAQGDCRTREEAMIFGVGLCDNGFMHHVLEKSEFKDEPLLFRFFSDEEMEGSNMKHRLMKHDLKVVENVIAKSLLIKSNEGSYGFGLEDKNKVPIIKLVEKGSNAEMAGMEVGKKIFAINGDLVFMRPFNEVDCFLKSCLNSRKPLRVLVSTKPRETVKIPDSADGLGFQIRGFGPSVVHAVGRGTVAAAAGLHPGQCIIKVNGINVSKETHASVIAHVTACRKYRRPTKQDSIQWVYNSIESAQEDLQKSHSKPPGDEAGDAFDCKVEEVIDKFNTMAIIDGKKEHVSLTVDNVHLEYGVVYEYDSTAGIKCNVVEKMIEPKGFFSLTAKILEALAKSDEHFVQNCTSLNSLNEVIPTDLQSKFSALCSERIEHLCQRISSYKKFSRVLKNRAWPTFKQAKSKISPLHSSDFCPTNCHVNVMEVSYPKTSTSLGSAFGVQLDSRKHNSHDKENKSSEQGKLSPMVYIQHTITTMAAPSGLSLGQQDGHGLRYLLKEEDLETQDIYQKLLGKLQTALKEVEMCVCQIDDLLSSITYSPKLERKTSEGIIPTDSDNEKGERNSKRVCFNVAGDEQEDSGHDTISNRDSYSDCNSNRNSIASFTSICSSQCSSYFHSDEMDSGDELPLSVRISHDKQDKIHSCLEHLFSQVDSITNLLKGQAVVRAFDQTKYLTPGRGLQEFQQEMEPKLSCPKRLRLHIKQDPWNLPSSVRTLAQNIRKFVEEVKCRLLLALLEYSDSETQLRRDMVFCQTLVATVCAFSEQLMAALNQMFDNSKENEMETWEASRRWLDQIANAGVLFHFQSLLSPNLTDEQAMLEDTLVALFDLEKVSFYFKPSEEEPLVANVPLTYQAEGSRQALKVYFYIDSYHFEQLPQRLKNGGGFKIHPVLFAQALESMEGYYYRDNVSVEEFQAQINAASLEKVKQYNQKLRAFYLDKSNSPPNSTSKAAYVDKLMRPLNALDELYRLVASFIRSKRTAACANTACSASGVGLLSVSSELCNRLGACHIIMCSSGVHRCTLSVTLEQAIILARSHGLPPRYIMQATDVMRKQGARVQNTAKNLGVRDRTPQSAPRLYKLCEPPPPAGEE
Regarding B1, the inhibition constant Ki was 19 nM. This counts as double-digit nanomolar.
